Laboratory results from patent US20140090111A1, “Plant Hormone Biosensors” (Carnegie Institution of Washington, priority 2012, published 2014).
Numbering of substitutions follows the chain as printed. Names and notes keep the numbering of the source.

B1: GID1C(S114A): GA biosensor mutant variant, mutation of a GA binding residue of GID1C (protein, UniProt Q940G6 2-344, looked up, variant S114A)
Gibberellin receptor GID1C: AGSEEVNLIESKTVVPLNTWVLISNFKLAYNLLRRPDGTFNRHLAEFLDRKVPANANPVNGVFSFDVIIDRQTNLLSRVYRPADAGTSPSITDLQNPVDGEIVPVIVFFHGGAFAHSSANSAIYDTLCRRLVGLCGAVVVSVNYRRAPENRYPCAYDDGWAVLKWVNSSSWLRSKKDSKVRIFLAGDSSGGNIVHNVAVRAVESRIDVLGNILLNPMFGGTERTESEKRLDGKYFVTVRDRDWYWRAFLPEGEDREHPACSPFGPRSKSLEGLSFPKSLVVVAGLDLIQDWQLKYAEGLKKAGQEVKLLYLEQATIGFYLLPNNNHFHTVMDEIAAFVNAECQ
modifications: within FRET biosensor
B2: GID1C P98A: GA biosensor mutant variant rendering GID interaction with DELLA constitutive; control (protein, UniProt Q940G6 2-344, looked up, variant P98A)
Gibberellin receptor GID1C: B1 Gibberellin receptor GID1C with P97A, A113S
modifications: within FRET biosensor
notes: control

Experiment: FRET fluorescence emission response of GA biosensors to GA
Format: binding
Settings: FIG. 9
From the text: FIG. 9 depicts the fluorescence emission curves of a GA biosensor in response to GA. Also depicted are the GA responses of biosensor mutant variants. A: GA response of SMSX39L10.DR43 (RGA2 and GID1C sub-domains, L10 linker, Venus and Cerulean fluorescent proteins).
Expression and screening hormone biosensors using Saccharomyces cerevisiae as a eukaryotic host cell to better express the eukaryotic hormone binding domains. S. cerevisiae can be adapted to a high-throughput expression system. A new library of GATEWAY™ destination vectors was created for expression in yeast (Table IV, FIG. 2). Although expression of SMS in S. cerevisiae was successful as determined by fluorescence emissions, purification of sensors from the host cells was not possible because of cleavage of the hormone binding domains of the SMS proteins upon cell lysis, which can be important because the rate of transport of many plant hormones into yeast cells is low. […] SMS proteins were subsequently screened from cell lysates and after purification using metal-affinity chromatography, if the clones included an N-terminal 6HIS tag.
Subsequent experiments identified protocols for yeast cell transformation, culture and lysis, metal-affinity chromatography, and fluorescence analysis after hormone treatment in a 96-well format. Thus, a novel high-throughput platform for creation and screening of SMS had been developed. […]

Molecule	GA affinity / GA response of biosensor
B1	reduced GA affinity
B2	GA non-responsive
